For assay [1], the target named is human PD-L1 expressed on cells (H441 lung tumor cells; MDA-MB-231 cells; artificial antigen presenting cells) (human) (UniProt Q9NZQ7). Nature of the assay: cell-based or functional assay.
Another assay concerns the target TGFβ1 (human) (UniProt P01137). Description: SPR, binder immobilized by Fc capture, TGFβ1 as analyte, OneStep kinetic analysis on Pioneer FE (Fortebio). A general note: SPR reads the build-up and loss of mass on a sensor chip optically.
The target in the next assay is TGFβ2 (UniProt P61812). Description: SPR, binder immobilized by Fc capture, TGFβ2 as analyte, OneStep kinetic analysis on Pioneer FE (Fortebio).
Assay [2] has as its target PD-L1 (soluble analyte in the SPR assay) (UniProt Q9NZQ7). Description: SPR, binder immobilized by Fc capture, PD-L1 as analyte, OneStep kinetic analysis on Pioneer FE (Fortebio).
For assay [3], the target named is human PD-L1 expressed on cells (H441 lung tumor cells; MDA-MB-231 cells; artificial antigen presenting cells) (human) (UniProt Q9NZQ7). Description: flow cytometry on PD-L1+ H441 cells, APC anti-human IgG Fc detection; the table has no unit, pM is from the graph's axis Concentration(pM). In general terms: In flow cytometry, cells or beads pass a laser one at a time.

For orientation: Kd means the free concentration of one partner at which half of the binding sites on the other are occupied at equilibrium, for simple one-to-one binding. A word on the EC50: it is the midpoint of the concentration-response curve. A lower EC50 goes with greater potency.

Sequence of human PD-L1 expressed on cells (H441 lung tumor cells; MDA-MB-231 cells; artificial antigen presenting cells) (human) (Q9NZQ7 19-290): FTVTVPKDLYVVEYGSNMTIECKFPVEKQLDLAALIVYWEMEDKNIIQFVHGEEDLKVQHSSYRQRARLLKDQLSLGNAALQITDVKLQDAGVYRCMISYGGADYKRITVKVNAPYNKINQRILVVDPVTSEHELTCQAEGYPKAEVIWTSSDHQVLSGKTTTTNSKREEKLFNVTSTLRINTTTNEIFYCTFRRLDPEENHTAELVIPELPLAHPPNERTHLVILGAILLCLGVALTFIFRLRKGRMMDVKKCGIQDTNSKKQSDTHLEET
Sequence of TGFβ2 (P61812 303-414 limits assumed): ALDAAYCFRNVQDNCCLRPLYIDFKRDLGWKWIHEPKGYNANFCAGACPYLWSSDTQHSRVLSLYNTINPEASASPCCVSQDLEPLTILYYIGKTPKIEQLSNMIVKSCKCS
Sequence of TGFβ1 (human) (P01137 279-390 limits assumed): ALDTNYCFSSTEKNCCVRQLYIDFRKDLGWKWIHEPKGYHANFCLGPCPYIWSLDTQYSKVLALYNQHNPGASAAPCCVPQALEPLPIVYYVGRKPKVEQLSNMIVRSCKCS
Sequence of PD-L1 (soluble analyte in the SPR assay) (Q9NZQ7 19-238 limits assumed): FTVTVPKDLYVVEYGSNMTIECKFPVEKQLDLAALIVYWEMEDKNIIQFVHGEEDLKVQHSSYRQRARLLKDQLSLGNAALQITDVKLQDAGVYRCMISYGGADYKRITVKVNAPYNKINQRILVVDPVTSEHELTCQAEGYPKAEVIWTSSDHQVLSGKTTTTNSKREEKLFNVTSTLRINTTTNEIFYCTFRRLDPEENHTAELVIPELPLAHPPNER

The substance “αPDL1/TXM/TGFβRII (N-810A); IL-15N72D:αPDL1/IL-15RαSu/Fc/TGFβRII fusion protein complex (from UniProt P40933 49-162) (Fc fusion)” registered a maximal killing, ADCC against PD-L1-positive MDA-MB-231 breast tumor cells in assay [1] of 30%. Further, the Kd was found to be 0.24 nM with TGFβ1 (human), 0.52 nM with TGFβ2 and 7.6 nM in assay [2]. In assay [3], this substance had an EC50 of 0.182 nM.

These data come from US20200002425A1.
